# Data: patent publication US5462743A, “Substance transfer system for topical application” (Medipro Sciences Limited, priority 1993, dated 1995)
# Where “and” joins values, the source holds several entries; their conditions need not be identical. Equal values may be shown once.
# How the values were obtained:
# [1] = In vitro permeation through intact skin, patch of FIGS. 14 and 15 (Example 6); assay type: in vitro ADME, Hairless Guinea Pig
# Protocol: (§1) The wells were filled with porous plastic.
# In addition to the transdermal patches using porous plastic depots as described in Example 5, patches containing fibrous depots were also tested. The fibrous depots, also measured 3 mm in length were cut from an aligned bonded cellulose acetate rod, 3 mm in diameter (R14236 from American Filtrona Co.).
# [2] = In vitro skin permeation, patch of FIGS. 14 and 15, liquid reservoir (Example 5); assay type: in vitro ADME, Hairless Guinea Pig; conditions: porous plastic depots, contact area 1.1 cm^2
# [3] = In vitro skin permeation, patch of FIGS. 14 and 15, dried drug matrix (Example 7); assay type: in vitro ADME, Hairless Guinea Pig; conditions: freeze dried depots, porous plastic matrix
# From the text: as §1
# The drug depots were hydrated with a suitable solubilizing solution just before the start of the permeation study, as illustrated in FIG. 6.
# [4] = in the bloodstream; cited from earlier work
# [5] = in vivo; cited from earlier work
# [6] = In vitro skin permeation, patch of FIG. 2 (Example 1); conditions: compromised skin, 37° C, contact area 0.21 cm^2, about 1 mg loaded, less than ideal intimate contact
# From the text: (§2) The skin penetration of model compounds from a transdermal patch constructed according to FIG. 2 was established in vitro by a permeation study. […] The array measured 1.7×1.7 cm and was centrally located. […] On this outer surface of the adhesive layer, but between the slightly protruding silicone tubing was cast a 30% solution of silicone sealant in hexane. The channels were filled with filaments of open cell polyurethane foam. On top of the dry silicone layer was placed a reservoir support layer consisting of a 1.5 mm thick sheet of the same open-cell polyurethane foam, 2.0 cm in diameter. The outer, barrier layer of the patch was a 3.5 cm diameter section of DERMAFLEX V-300-F FLESH (vinyl coated with a medical grade acrylic adhesive, FLEXCON Company). The reservoir and channels of the patch were loaded with a solution which contained a fluorescently labelled model compound (polypeptides or polysaccharide). […] The sections of modified skin (stratum corneum removed) were excised from the Hairless Guinea Pig and mounted on the diffusion cell above a solution of isotonic saline such that the dermal side of skin was in contact with the magnetically stirred receptor liquid. The device was brought into intimate contact with the epidermal surface of the skin. The effective contact area of the solution with the skin through the channels was 0.21 cm^2. […]
# [7] = In vitro skin permeation, patch of FIG. 3 (Example 4); assay type: in vitro ADME, Hairless Guinea Pig; conditions: porous plastic depots
# From the text: […] […] Duplicate samples of each test compound were run.
# skin compatible adhesive, H-566 coated onto a white polyethylene closed cell foam, 0.8 mm thick (Dermaflex PEF 32-W H-566 from Flexcon Company, Inc.) was used, perforated with an array of 69 cylindrical channels approximately 0.84 mm in diameter;
# the channels were not lined; instead they were filled with cylindrical sections of porous plastic material (Hydrophilic HDPE with medium pore size, NO. X-4899, Porex Technologies);
# the silicone sealant was absent; a reservoir support layer consisting of 1.6 mm thick sheet of porous plastic material, 2.0 cm in diameter (Hydrophilic HDPE with coarse pore size, NO. X-4916, Porex Technologies) was placed directly above the array of 69 channels;
# Some variability in results, as between attempted duplicates, was observed, largely attributable to uncertain intimate contact between the reservoir and the skin contacting matrices.
# [8] = tested on: cancerous body cells; conditions: subsequently converted into protoporphyrin IX; cited from earlier work
# [9] = In vitro skin permeation, patch of FIG. 2 with H566 adhesive (Example 2); conditions: compromised skin, approximately 1 mg loaded, intimate contact maintained
# From the text: as §2
compound,measurement,setting,value
"C[C@]12CC[C@@H]3c4ccc(O)cc4CC[C@H]3[C@@H]1CC[C@@H]2O [Estradiol, estradiol]",Amount Permeated (Cumulative),"[1]; fibrous matrix, 8 hrs",0.19 Micrograms and 0.34 Micrograms
same,Amount Permeated (Cumulative),"[1]; fibrous matrix, 24 hrs",1.74 Micrograms and 2.93 Micrograms
same,Amount Permeated (Cumulative),"[1]; fibrous matrix, 48 hrs",2.99 Micrograms and 4.83 Micrograms
same,Amount Permeated (Cumulative),"[1]; porous plastic matrix, 8 hrs",1.01 Micrograms and 1.03 Micrograms
same,Amount Permeated (Cumulative),"[1]; porous plastic matrix, 24 hrs",6.14 Micrograms and 6.87 Micrograms
same,Amount Permeated (Cumulative),"[1]; porous plastic matrix, 48 hrs",9.90 Micrograms and 10.69 Micrograms
"Cytochrome C: carbon-14 labelled model compound, polypeptide, 12,300, from horse heart",Amount Permeated (Cumulated),[2]; 4 hrs,117.8 micrograms and 103.4 micrograms
same,Amount Permeated (Cumulated),[2]; 8 hrs,257.5 micrograms and 239.8 micrograms
same,Amount Permeated (Cumulated),[2]; 24 hrs,581.6 micrograms and 572.6 micrograms
same,Amount Permeated (Cumulated),[2]; 48 hrs,740.0 micrograms and 728.3 micrograms
same,Amount Permeated (Cumulative),[3]; 4 hrs,40.4 Micrograms
same,Amount Permeated (Cumulative),[3]; 8 hrs,124.2 Micrograms and 119.9 Micrograms
same,Amount Permeated (Cumulative),[3]; 24 hrs,412.6 Micrograms and 363.1 Micrograms
same,Amount Permeated (Cumulative),[3]; 48 hrs,642.7 Micrograms and 560.6 Micrograms
"human growth hormone: polypeptide drug, human growth hormone (22,000 daltons)",half-life,[4],less than 25 minutes
Hyaluronic acid [HA],accumulation in HA-depleted areas,[5],preferentially accumulates in these depleted areas
Casein,Amount Permeated in 20 Hrs.,[6],0.05 Micrograms and 0.03 Micrograms
same,Amount Permeated in 20 Hrs.,[7],75.98 Micrograms and 104.98 Micrograms
"parathyroid hormone: polypeptide drug, parathyroid hormone (9,500 daltons)",half-life,[4],less than 15 minutes
NCC(=O)CCC(=O)O [5-aminolevulinic acid],absorption by cancerous body cells,[8],preferentially absorbed by cancerous body cells
Insulin,Amount Permeated in 20 Hrs.,[6],0.04 Micrograms and 0.05 Micrograms
same,Amount Permeated in 20 Hrs.,[9],10.85 Micrograms and 8.30 Micrograms
same,Amount Permeated in 20 Hrs.,[7],41.96 Micrograms and 22.78 Micrograms
